Test results from paper PMC7460845, “A Fungal Ascorbate Oxidase with Unexpected Laccase Activity” (International Journal of Molecular Sciences, 2020).

Assays:
[1] = substrate: CCn1c(=NN=c2sc3cc(S(=O)(=O)O)ccc3n2CC)sc2cc(S(=O)(=O)O)ccc21; test: spectrophotometric ABTS oxidation, plate reader, Lineweaver-Burk; type: biochemical, Aspergillus flavus; details: 0.1 M citrate buffer pH 3.4, 25 °C, 0.5 to 20 mM substrate, oxygen as co-substrate
[2] = substrate: O=C1O[C@H]([C@@H](O)CO)C(O)=C1O; test: purified protein; type: biochemical, Aspergillus flavus; details: pH 5.0, 30 °C, 0.05 to 1 mM substrate, oxygen as co-substrate

B1: Af_AO1 (Aspergillus flavus NRRL3357) (protein)
chain: HLVLHDDSFQPDHILRVTAQDVNQACMDRYSVLINGSLPGPQLNIQEGKVNWIRVYNDMEDLNVTMHWHGLSAFTAPFSDGTPMASQWPIPPGHFFDYEVRPEVGYAGTYFYHSHVGFQALTAWGALIVESAQPSPYQYDEERIIALSDFFTKTDEEIENGLTSTNFTWSGETSAVLVNGQGRLATNATGSCKLAAISVEPGKTYRLRFIGATALSFVSISLESHDVLEIIEADGHYTKPVNTSYLQISSGQRYSVLLKAKTEAELQQAKSRQFYFQLTTMGRPTVLTTFAVLEYPSPTTTDLITVPVTPPLPVANITYGWLDYTLEPYYPDLDFPTVEEVTRRIIINVHQNISDRTVWLQNGYDWVETFPKSPYLVDIYAGTLDLDASYKRAIASGYAFDNQTRLFPAKMGEVLEIVWQNQGAVSNGGVENHPFHAHGRHFYDIGGGDGLYNLTENEARLKGTHPVIRDTTMLYAYRKTTTALEPSGWRAWRIRVTAAGVWMVHCHVLQHMLMGMQTAFAFGDQTAIKAQSGTPAEGYLTYGGSAYGNVTHFPPVKHFFN
notes: natural signal peptide removed, no tag; codon-optimized gene in pPicZalphaB, secreted from Pichia pastoris KM71H; model target 561 residues
Work on B1 yielded a Km [1] of 1890 ± 120 µM and a Km [2] of 160 ± 30 µM.
